Test results published in US20230203107A1, “PEPTIDE FOR TREATING SEPSIS DERIVED FROM RV3364C PROTEIN OF MYCOBACTERIUM TUBERCULOSIS” (priority 2021, published 2023).

Assays:
[1] = target: T1, interaction between SNX9 and p47phox (Homo sapiens, UniProt Q9Y5X1); assay type: cell-based; details: HEK293T cells, Flag-Rv3364c 1, 5, 10 μg, 12 hours
T1 construct: different regions 1-595, 1-250, 250-361, and 392-595 of SNX9; p47phox plasmid as in Biomaterials 2016, 89, 1-13; host or cells: HEK293T

[2] = target: T2, interaction between YEATS4 and Rv3364c (Homo sapiens, UniProt O95619); assay type: cell-based
T2 construct: host or cells: 293 / HEK293T
T2 sequence (O95619 whole entry): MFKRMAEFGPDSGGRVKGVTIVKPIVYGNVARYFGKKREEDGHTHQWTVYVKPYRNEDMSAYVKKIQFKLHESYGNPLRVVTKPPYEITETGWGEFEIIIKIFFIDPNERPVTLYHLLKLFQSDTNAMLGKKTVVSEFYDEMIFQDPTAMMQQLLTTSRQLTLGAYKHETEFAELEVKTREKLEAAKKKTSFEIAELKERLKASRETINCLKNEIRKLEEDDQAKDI

[3] = target: T3, interaction between SNX9 and Rv3364c (Homo sapiens, UniProt Q9Y5X1); assay type: cell-based
T3 construct: different regions 1-595, 1-250, 250-361, and 392-595 of SNX9; host or cells: 293 / HEK293T
T3 sequence (Q9Y5X1 whole entry): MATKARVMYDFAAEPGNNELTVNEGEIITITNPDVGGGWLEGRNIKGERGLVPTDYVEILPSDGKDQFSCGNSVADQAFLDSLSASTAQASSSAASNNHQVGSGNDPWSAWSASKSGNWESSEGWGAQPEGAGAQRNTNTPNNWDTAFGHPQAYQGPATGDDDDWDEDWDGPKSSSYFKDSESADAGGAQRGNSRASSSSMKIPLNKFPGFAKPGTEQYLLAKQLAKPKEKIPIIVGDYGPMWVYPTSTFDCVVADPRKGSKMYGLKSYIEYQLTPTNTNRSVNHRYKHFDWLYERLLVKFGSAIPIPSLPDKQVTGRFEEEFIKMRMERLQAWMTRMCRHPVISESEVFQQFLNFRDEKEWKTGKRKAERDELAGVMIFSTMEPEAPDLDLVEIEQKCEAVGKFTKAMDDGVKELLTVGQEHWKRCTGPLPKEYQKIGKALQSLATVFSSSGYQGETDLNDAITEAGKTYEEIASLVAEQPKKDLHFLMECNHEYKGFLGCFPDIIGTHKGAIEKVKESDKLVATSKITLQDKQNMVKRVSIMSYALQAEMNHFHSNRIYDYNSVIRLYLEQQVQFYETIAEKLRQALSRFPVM

[4] = target: T4, endogenous EGFLAM of mouse macrophages (BMDM) (mouse, UniProt Q4VBE4 25-1017); assay: anti-His co-IP from BMDM treated with rRv3364c, anti-EGFLAM blot
T4 sequence: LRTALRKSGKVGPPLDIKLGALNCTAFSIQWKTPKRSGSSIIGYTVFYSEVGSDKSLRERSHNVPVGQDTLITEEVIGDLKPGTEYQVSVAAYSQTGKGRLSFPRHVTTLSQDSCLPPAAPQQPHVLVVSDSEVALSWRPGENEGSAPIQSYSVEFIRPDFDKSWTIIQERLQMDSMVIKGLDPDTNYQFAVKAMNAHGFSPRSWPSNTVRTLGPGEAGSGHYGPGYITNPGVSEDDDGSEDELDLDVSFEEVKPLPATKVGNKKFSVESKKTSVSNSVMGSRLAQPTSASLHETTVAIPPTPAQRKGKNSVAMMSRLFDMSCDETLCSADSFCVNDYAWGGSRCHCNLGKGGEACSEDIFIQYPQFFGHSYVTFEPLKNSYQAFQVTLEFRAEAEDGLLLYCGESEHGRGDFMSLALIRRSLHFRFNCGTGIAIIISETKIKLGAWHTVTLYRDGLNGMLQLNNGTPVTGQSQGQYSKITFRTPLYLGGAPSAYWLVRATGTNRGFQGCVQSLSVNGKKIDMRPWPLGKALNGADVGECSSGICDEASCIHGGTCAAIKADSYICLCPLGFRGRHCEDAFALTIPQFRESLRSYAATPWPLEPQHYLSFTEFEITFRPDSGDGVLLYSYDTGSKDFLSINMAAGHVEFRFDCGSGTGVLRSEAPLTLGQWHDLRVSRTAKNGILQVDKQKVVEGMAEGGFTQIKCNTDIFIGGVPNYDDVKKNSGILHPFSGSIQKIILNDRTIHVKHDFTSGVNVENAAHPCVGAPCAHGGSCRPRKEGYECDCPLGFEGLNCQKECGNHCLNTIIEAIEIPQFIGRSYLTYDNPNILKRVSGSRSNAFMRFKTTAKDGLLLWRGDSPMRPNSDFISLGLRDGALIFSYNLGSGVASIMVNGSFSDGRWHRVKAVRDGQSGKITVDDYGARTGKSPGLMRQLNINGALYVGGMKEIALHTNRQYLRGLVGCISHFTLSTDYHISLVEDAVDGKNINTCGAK

[5] = target: T5, endogenous ZBTB46 of mouse macrophages (BMDM) (mouse, UniProt Q8BID6 1-600); assay: anti-His co-IP from BMDM treated with rRv3364c, anti-ZBTB46 blot
T5 sequence: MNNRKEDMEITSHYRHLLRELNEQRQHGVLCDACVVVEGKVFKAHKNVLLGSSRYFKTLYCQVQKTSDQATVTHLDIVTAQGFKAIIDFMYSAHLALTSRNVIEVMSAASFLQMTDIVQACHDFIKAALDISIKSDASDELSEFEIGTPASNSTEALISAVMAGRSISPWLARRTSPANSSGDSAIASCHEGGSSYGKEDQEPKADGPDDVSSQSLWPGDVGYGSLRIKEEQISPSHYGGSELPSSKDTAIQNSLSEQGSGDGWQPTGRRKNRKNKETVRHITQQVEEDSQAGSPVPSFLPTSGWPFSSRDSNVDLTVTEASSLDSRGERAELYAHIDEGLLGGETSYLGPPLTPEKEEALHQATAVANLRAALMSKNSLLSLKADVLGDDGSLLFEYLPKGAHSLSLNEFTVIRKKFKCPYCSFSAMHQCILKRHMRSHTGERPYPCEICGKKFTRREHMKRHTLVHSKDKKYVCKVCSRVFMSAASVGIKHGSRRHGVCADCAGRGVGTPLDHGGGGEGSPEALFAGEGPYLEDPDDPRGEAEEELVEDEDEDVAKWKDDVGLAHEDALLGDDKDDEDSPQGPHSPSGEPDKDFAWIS

[6] = target: T6, endogenous SNX9 of mouse macrophages (BMDM, Raw264.7) (mouse, UniProt Q91VH2 1-595); assay: anti-His co-IP from BMDM treated with 1 ug/ml rRv3364c, anti-SNX9 blot
T6 construct: also called SNC9
T6 sequence (Q91VH2 whole entry): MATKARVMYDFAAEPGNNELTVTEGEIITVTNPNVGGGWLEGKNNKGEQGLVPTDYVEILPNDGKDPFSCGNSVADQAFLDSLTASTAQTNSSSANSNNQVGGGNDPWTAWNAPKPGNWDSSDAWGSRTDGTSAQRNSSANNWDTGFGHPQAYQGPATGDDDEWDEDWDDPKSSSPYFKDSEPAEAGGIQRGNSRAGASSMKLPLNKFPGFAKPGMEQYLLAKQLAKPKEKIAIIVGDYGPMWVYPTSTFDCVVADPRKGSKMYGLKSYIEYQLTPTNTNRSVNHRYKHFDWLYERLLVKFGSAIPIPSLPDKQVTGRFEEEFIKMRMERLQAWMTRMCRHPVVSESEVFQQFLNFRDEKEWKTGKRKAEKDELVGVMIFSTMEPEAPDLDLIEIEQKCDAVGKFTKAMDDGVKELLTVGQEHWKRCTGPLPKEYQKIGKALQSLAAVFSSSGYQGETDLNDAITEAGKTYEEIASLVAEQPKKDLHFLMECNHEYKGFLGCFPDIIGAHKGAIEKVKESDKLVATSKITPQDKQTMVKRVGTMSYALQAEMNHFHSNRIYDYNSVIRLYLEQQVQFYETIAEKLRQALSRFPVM

[7] = target: endogenous YEATS4 of mouse macrophages (BMDM, Raw264.7) (mouse, UniProt Q9CR11 1-227); assay: anti-His co-IP from BMDM treated with 1 ug/ml rRv3364c, anti-YEATS4 blot
Chain of endogenous YEATS4 of mouse macrophages (BMDM, Raw264.7) (Q9CR11 whole entry): as the sequence (O95619 whole entry) above, with A224T counted along it

[8] = target: SNX9 (sorting nexin 9), full-length recombinant human protein on the HuProt microarray (human, UniProt Q9Y5X1 1-595); assay: HuProt human proteome microarray, biotinylated rRv3364c, streptavidin Alexa Fluor 532
Chain of SNX9 (sorting nexin 9), full-length recombinant human protein on the HuProt microarray (Q9Y5X1 whole entry, the tested form may be a part): as the sequence (Q9Y5X1 whole entry) above

[9] = target: YEATS4 (YEATS domain-containing protein 4), full-length recombinant human protein on the HuProt microarray (human, UniProt O95619 1-227); assay: as above
Chain of YEATS4 (YEATS domain-containing protein 4), full-length recombinant human protein on the HuProt microarray (O95619 whole entry, the tested form may be a part): as the sequence (O95619 whole entry) above

[10] = target: T7, ZBTB46 (zinc finger and BTB domain-containing 46), full-length recombinant human protein on the HuProt … (human, UniProt Q86UZ6 1-589); assay: as above
T7 sequence: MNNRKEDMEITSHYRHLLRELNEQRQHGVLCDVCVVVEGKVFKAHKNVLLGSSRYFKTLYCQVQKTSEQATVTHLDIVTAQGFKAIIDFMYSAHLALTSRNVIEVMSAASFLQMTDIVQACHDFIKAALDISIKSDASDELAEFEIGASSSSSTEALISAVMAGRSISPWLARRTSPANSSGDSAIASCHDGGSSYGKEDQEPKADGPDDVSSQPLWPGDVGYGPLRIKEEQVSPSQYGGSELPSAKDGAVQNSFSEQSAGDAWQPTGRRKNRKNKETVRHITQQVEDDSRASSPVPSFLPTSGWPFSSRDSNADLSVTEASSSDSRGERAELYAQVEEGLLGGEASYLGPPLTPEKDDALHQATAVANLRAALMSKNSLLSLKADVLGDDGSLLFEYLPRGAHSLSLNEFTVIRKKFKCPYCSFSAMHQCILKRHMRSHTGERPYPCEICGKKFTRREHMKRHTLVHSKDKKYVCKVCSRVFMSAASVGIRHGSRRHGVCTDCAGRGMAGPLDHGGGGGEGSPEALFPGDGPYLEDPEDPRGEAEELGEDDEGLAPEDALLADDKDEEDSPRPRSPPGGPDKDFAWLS

T1 sequence (Q9Y5X1 whole entry): as the sequence (Q9Y5X1 whole entry) above

Rv3364c: Rv3364c protein of Mycobacterium tuberculosis, expressed in 293T cells from a Flag-tagged plasmid
interaction between SNX9 and p47phox [1]: decreased as the amount of Rv3364c increased

MKARLPDSPL [Tat-Rv3364c (1MKARLPDSPL10)]
blocking of the interaction between YEATS4 and Rv3364c [2]: block the interaction between YEATS4 and Rv3364c

WLVSKF (Rv3364c(12-17 aa)) [12WLVSKF17]
region of Rv3364c required for interaction with SNX9 ([3]; FIG. 5): minimum peptide essential for interaction with SNX9

DWLVSKFARE [Tat-Rv3364c (11DWLVSKFARE20)]
blocking of the interaction between SNX9 and Rv3364c ([3]; 293 cells with Myc-SNX9 and Flag-Rv3364c, peptide 5 μM, 12 hours): block the interaction between SNX9 and Rv3364c

B1: recombinant Rv3364c (rRv3364c) protein, N-terminal 6xHis tag (other)
chain: MKARLPDSPLDWLVSKFAREVPGVAHALLVSVDGLPVAASEHLPRERADQLAAVTSGLASLAGGAAQLFDGGQVLQSVVEMQNGYLLLMQVGDGSALAALAATGCDIGQIGYEMAILVERVGGVVQSCRR
notes: also called His-rRv3364c; not shown: N-terminal 6xHis tag from the pRSFDuet-1 vector
binding result [4]: no binding (tested: 1 ug/ml rRv3364c) | binding result [5]: no binding (tested: 1 ug/ml rRv3364c) | binding result [6]: binds | binding result [7]: binds | binding result [8]: binds | binding result [9]: binds | binding result [10]: binds
